Source: the supplement of paper PMC10567573

B1: TMEM40 (parent)
chain: YGETDFHKQDGKAGLFSQEQYERN

Variants of: B1
Assay: protein stability index of a GFP-peptide fusion (GPS, HEK-293T) (PSI 1-6); higher = more stable
Conditions: c terminus: a fixed tail appended
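Further: lentivirally expressed fusions sorted by FACS into six bins by GFP to DsRed ratio, PSI derived from sequencing read proportions per bin multiplied by bin number.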

Protein stability index, by site and new letter:
R23: C 4.32; A 4.69
G14: Y 3.74; I 3.93; N 4.47; P 4.34; M 4.45; R 3.84; E 4.63; W 2.72; S 4.68; C 4.18; T 4.06; D 4.79; F 3.69; A 4.02; L 3.86; H 4.06; Q 4.29; K 4.32; V 4.09
Q9: P 3.56; M 3.17; W 2.99; H 3.75; G 3.73; Y 3.37; F 3.38; V 3.6; R 4.13; K 3.7; E 4.78; S 4.33; L 3.49; I 3.71; D 5.05; A 3.96; N 4.53; T 3.85
D10: W 2.27; Y 2.85; K 3.44; S 2.96; T 3.04; I 1.92; V 2; M 1.47; F 2.26; P 3.12; R 3.37; L 2.09; G 3.24; Q 2.9; N 3.92; C 2.46; H 2.77; E 3.72
E22: I 3.29; N 3.85; A 3.91; M 3.64; K 3.67; Q 3.8; T 4.01; Y 3.23; D 4.03; L 3.61; G 3.83; F 3.19; C 3.61; V 3.76; W 2.74; R 3.71; H 3.34; P 3.48
F16: T 4.58; N 4.91; P 5.02; S 4.88; Y 5.04; K 4.38; Q 5.1; V 4.65; L 4.47; C 3.78; H 5.06; D 5.25; M 4.53; R 4.81; G 4.84; W 3.08; A 4.97; E 4.3; I 4.58
A13: V 4.27; T 4.28; R 3.96; P 3.54; S 3.83; E 4.33; Y 3.41; W 3.87; F 3.83; K 4.04; Q 3.93; H 4.21; L 4.07; M 3.65; D 4.28; C 3.28; G 4.08; I 4.03; N 4.54
K8: M 3.71; V 4.34; N 4.01; H 4.18; I 3.89; G 4.31; P 4.7; F 3.77; W 2.36; D 5.12; A 4.53; Q 4.66; R 3.86; Y 3.96; S 4.66; C 4.5; L 4.29; T 4.46; E 4.67
Q20: T 4.15; S 4.3; G 3.48; P 3.55; L 3.42; R 3.92; A 4.32; H 4.01; N 4.12; M 3.92; W 3; F 3.41; E 4.45; I 3.85; C 3.5; D 4.71; Y 3.71; K 3.79; V 3.66
Q18: D 4.5; S 3.3; F 3.65; E 4.6; V 3.36; T 3.41; H 4.29; K 4.55; R 3.83; W 3.45; M 3.23; L 3.81; Y 3.4; I 3.58; G 4.26; A 3.66; N 3.66; P 2.05; C 2.82
S17: L 3.35; H 3.54; C 4.07; W 1.97; V 4.08; I 3.81; N 4.52; D 3.98; A 3.79; M 3.97; T 3.81; E 4.51; F 3.1; Q 4.48; R 4.27; K 3.44; Y 3.66; P 4.03; G 3.94
H7: C 4.35; A 4.48; T 4.53; K 4.18; V 4.24; L 3.92; Q 4.32; E 4.93; S 4.67; D 5.38; R 4.08; Y 2.17; I 4.37; G 4.58; F 1.88; W 3.12; M 3.9; N 4.91; P 4.3
D5: S 2.88; Y 2.04; M 2.58; T 2.99; H 2.83; L 3.07; K 3.2; P 4.14; Q 3.81; R 3.38; N 3.24; V 3.2; I 3.15
G11: Y 3.75; P 3.46; W 3.2; Q 4.04; H 4.16; T 3.68; N 4.32; M 4.58; E 4.68; V 4.21; C 3.77; K 4.16; S 4.55; I 3.9; A 4.25; F 3.86; D 4.5; R 4.08
F6: H 5.22; K 4.91; P 4.94; N 5; I 4.73; D 5.26; Q 4.36; Y 4.41; V 5.09; S 5.6; A 5.22; E 5.38; W 2.35; C 4.54; G 5.25; T 4.6; M 4.91; L 4.98; R 4.54
K12: D 4.86; W 3.21; I 3.93; L 3.66; E 4.82; A 4.25; C 4.35; N 4.78; R 4.1; P 4.38; F 4.21; H 4.28; T 4.5; S 4.86; M 4.14; G 4.19; Y 3.99; Q 4.21; V 4.49
L15: T 4.55; H 4.02; C 4.38; D 5.02; W 3.8; E 4.66; I 4.08; G 4.73; K 4.49; N 4.5; V 4.18; R 4.43; F 3.32; Y 3.84; S 5.04; Q 4.51; P 4.89; A 4.39; M 4.27
E19: W 2.64; F 2.54; V 3.22; H 3.29; N 3.9; M 3.15; Q 3.7; G 3.66; A 3.54; L 2.21; Y 3.15; D 4.45; P 3.72; K 3.23; R 3.49; C 3.48; S 3.6; T 3.73; I 2.23
Y21: D 4.95; C 3.95; E 4.35; Q 4.44; R 5.25; H 4.73; A 4.04; T 5.02; G 4.8; F 4.25; S 4.63; I 4.65; L 4.07; M 3.92; V 4.38; W 4.09; N 4.47; K 4.54; P 4.32
